T1: FKBP51 (UniProt Q13451 1-457)
T1 sequence: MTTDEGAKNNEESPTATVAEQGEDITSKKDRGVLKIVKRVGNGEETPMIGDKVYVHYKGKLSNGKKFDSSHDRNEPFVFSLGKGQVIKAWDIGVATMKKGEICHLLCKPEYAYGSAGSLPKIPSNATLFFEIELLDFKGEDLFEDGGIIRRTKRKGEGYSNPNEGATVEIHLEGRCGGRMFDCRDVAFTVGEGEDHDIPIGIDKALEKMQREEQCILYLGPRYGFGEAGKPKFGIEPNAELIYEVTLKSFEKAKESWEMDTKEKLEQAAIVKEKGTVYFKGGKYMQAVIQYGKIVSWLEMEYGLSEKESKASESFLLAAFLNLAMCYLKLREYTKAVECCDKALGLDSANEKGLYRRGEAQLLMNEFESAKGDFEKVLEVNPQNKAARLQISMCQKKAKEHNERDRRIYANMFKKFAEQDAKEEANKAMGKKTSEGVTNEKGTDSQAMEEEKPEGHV


Columns and labels:
[1] = biological target: T1, FKBP51; assay: NMR titration
[2] = biological target: 441-residue human 2N4R tau (human, UniProt P10636-8 1-441); assay: NMR titration

binding result [1]	binding result [2]	Binder
binds	–	truncated p23 (1-119) (domain or fragment) MQPASAKWYDRRDYVFIEFCVEDSKDVNVNFEKSKLTFSCLGGSDNFKHLNEIDLFHCIDPNDSKHKRTDRSILCCLRKGESGQSWPRLTKERAKLNWLSVDFNNWKDWEDDSDEDMSN
–	binds	p23 (human, wild type) (natural protein) MQPASAKWYDRRDYVFIEFCVEDSKDVNVNFEKSKLTFSCLGGSDNFKHLNEIDLFHCIDPNDSKHKRTDRSILCCLRKGESGQSWPRLTKERAKLNWLSVDFNNWKDWEDDSDEDMSNFDRFSEMMNNMGGDEDVDLPEVDGADDDSQDSDDEKMPDLE
